Source: patent US6685932

What was measured:
[1] = target: T1, extracellular domain of the IL-4Rα (IL-4 binding protein), P24394; experiment: biosensor (BIA2000), IL4BP biotinylated at Cys-206 on a streptavidin matrix, 25 C
[2] = target: T1, extracellular domain of the IL-4Rα …; experiment: biosensor (BIA2000), IL4BP on a streptavidin matrix, room temperature
[3] = target: T1, extracellular domain of the IL-4Rα …; experiment: biosensor (BIA2000), compared with MAR-IL4

T1 sequence (P24394 26-232 limits assumed): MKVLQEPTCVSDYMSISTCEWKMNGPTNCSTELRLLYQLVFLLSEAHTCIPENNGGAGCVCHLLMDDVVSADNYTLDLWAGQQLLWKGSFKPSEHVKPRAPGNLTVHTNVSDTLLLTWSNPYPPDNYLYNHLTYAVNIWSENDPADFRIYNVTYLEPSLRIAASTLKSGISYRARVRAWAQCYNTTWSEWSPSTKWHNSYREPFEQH

Binder	Kd [1] [µM]	Kd [2] [µM]	fold increase in binding affinity against MAR-IL4 [3] [fold]
RMKQLEKKVERLLKRNYRLENEVARLKKLVG (modifications not checked) [Model 2a]	2160	2000	
RMKQLEKKVERLLKRNYRLEWEVARLKKLVG (modifications not checked) [Model 2c]	106	100	
RMKQLEKKVERLLKRNYRLENEVIRLKKLVG (modifications not checked) [Model 2b]	193		
RMKQLEKKVERLLKRNYRLEWEVIRLKKLVG (modifications not checked) [MAR-IL4]	26		

The next binders have a lower Kd [1] than those just listed; values first:

Kd [1] [µM]	Kd [2] [µM]	fold increase in binding affinity against MAR-IL4 [3] [fold]	Binder
5			RMKQLEKKVERCLKRLYRNEWEVIRLKKLVG (modifications not checked) [12CNMAR-IL4]
5 to 10		5	RMKQLEKKVERLLKRNYRLEWEVIRCKKLVG (modifications not checked) [26CMAR-IL4]
5		5	RMKQLEKKVERCLKRNYRLEWEVIRLKKLVG (modifications not checked) [12CMAR-IL4]
